Data reported in US20060171935A1, “Protecting cell therapy for neurological disorders including Parkinson's disease” (priority 2005, published 2006).
Where a chain is given by its changes, count along the chain named. Names may count otherwise.

T1: citrate synthase (CS) (Sus scrofa, UniProt P00889)
T1 construct: purchased Sigma
T1 sequence (P00889 28-464): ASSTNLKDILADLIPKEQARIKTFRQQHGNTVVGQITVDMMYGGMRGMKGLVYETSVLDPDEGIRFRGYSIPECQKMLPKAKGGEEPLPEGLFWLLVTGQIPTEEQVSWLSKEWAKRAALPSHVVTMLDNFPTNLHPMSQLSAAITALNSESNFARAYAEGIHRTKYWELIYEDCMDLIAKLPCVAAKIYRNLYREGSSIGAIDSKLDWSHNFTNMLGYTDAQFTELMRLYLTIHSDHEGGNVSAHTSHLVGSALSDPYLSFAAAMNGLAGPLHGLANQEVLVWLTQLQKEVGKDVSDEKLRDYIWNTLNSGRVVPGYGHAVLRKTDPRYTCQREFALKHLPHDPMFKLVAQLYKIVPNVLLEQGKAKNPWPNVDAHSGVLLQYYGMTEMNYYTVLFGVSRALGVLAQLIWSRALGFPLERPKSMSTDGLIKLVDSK

B1: Noggin: soluble Noggin, inhibits BMP signaling (protein, UniProt Q13253 28-232, looked up)
Noggin: QHYLHIRPAPSDNLPLVDLIEHPDPIFDPKEKDLNETLLRSLLGGHYDPGFMATSPPEDRPGGGGGAAGGAEDLAELDQLLRQRPSGAMPSEIKGLEFSEGLAQGKKQRLSKKLRRKLQMWLWSQTFCPVLYAWNDLGSRFWPRYVKVGSCFSKRSCSVPEGMVCKPSKSVHLTVLRWRCQRRGGQRCGWIPIQYPIISECKCSC
B2: L166P DJ-1: Parkinsonism-associated L166P mutant of human DJ-1, recombinant or plasmid-expressed (protein, UniProt Q99497 1-189, looked up, variant L166P)
chain: MASKRALVILAKGAEEMETVIPVDVMRRAGIKVTVAGLAGKDPVQCSRDVVICPDASLEDAKKEGPYDVVVLPGGNLGAQNLSESAAVKEILKEQENRKGLIAAICAGPTALLAHEIGFGSKVTTHPLAKDKMMNGGHYTYSENRVEKDGLILTSRGPGTSFEFAPAIVEALNGKEVAAQVKAPLVLKD
B3: C53A: DJ-1 cysteine-to-alanine mutant at cysteine 53 (protein, UniProt Q99497 1-189, looked up, variant C53A)
chain: B2 chain with C53A, P166L

Columns and labels:
DY-1 ES cells = experiment: Candidate soluble factors in DY-1 ES cell differentiation to dopamine neurons; format: cell-based, murine; conditions: added at stages 4-5 of differentiation
Experimental: The availability of marked ES-derived ‘late’ dopamine neurons should facilitate the analysis of candidate soluble and cell-associated factors in the differentiation process. […] Briefly, DY-1 ES cells were differentiated using EB or SDIA and candidate factors were added to the standard differentiation protocol at stages 4-5 of differentiation (Lee et al., 2000).

[1] = test system: CAD murine neuroblastoma cells; experiment: αSyn intracytoplasmic inclusions in CAD cells; format: cell-based; conditions: co-overexpression with αSyn
Experimental: To further evaluate αSyn aggregation, the inventors performed immunohistochemical analyses of CAD cells transfected with αSyn along with DJ-1 or control vector (FIG. 25). Overexpression of αSyn in neuroblastoma cells induces the formation of visible cytoplasmic aggregates (Lee and Lee 2002) (FIGS. 25J-25L).
(§1) Quantification of CAD cell aggregates was performed using a Zeiss LSM Pascal confocal microscope (Zeiss, Oberkochen, Germany) with a 20× long working distance lens. Images were imported to NIH Image J for analysis. Images from tenrandomly selected fields in each of three wells were quantified for each condition. Cells containing at least one intracytoplasmic aggregate, independent of size or number per cell, were scored as positive for aggregates. This number was divided by the number of transfected cells per field, determined by GFP fluorescence.

CD thermal denaturation = format: physicochemical; conditions: CD at 222 nm, range studied 0-90° C.
Description: (G) Redox regulation is unaffected by the C106A mutation.
Molecular chaperones typically display marked stability to thermal stress (Sastry et al. 2002). […] (FIG. 28).

DJ-1-deficient ES cells = experiment: Rescue of DJ-1-deficient ES cells from H2O2, MTT viability; format: cell-based, murine; conditions: transient transfection, 10 μM H2O2 for 15 h
Experimental: (A) DJ-1 cysteine-to-alanine mutants C106A, C53A, and a triple mutant that harbors mutations at all three cysteines in DJ-1 (C106A/C53A/C46A), as well as L166P, were tested for in vitro chaperone activity by CS aggregation suppression assay. (B) Self-association of DJ-1 cysteine mutants. Murine neuroblastoma CAD cells were transiently cotransfected with Flag-tagged human DJ-1 vectors (either WT or mutant) along with WT YFP-tagged human DJ-1. Lysates were immunoprecipitated with anti-Flag antibodies and probed by Western blotting with an antibody specific for human DJ-1. […] Lysates represent 20% of the input for the immunoprecipitate; Flag-DJ-1 migrates at 22 kDa, and YFP-DJ-1 migrates at 50 kDa. (C) DJ-1-deficient ES cells were transiently transfected with vector alone, WT DJ-1, or DJ-1 cysteine mutants, and exposed to 10 μM H2O2 for 15 h followed by MTT assay. The viability of the cells in the absence of drug treatment was not altered by the expression of WT or mutant DJ-1). Data are shown as the mean±SEM and were analyzed by ANOVA with Fisher's post-hoc test. *p<0.05.
To confirm that altered sensitivity to oxidative stress is a consequence of the loss of DJ-1, ‘rescue’ experiments by overexpressing wild-type or mutant human DJ-1 in ‘knockout’ ES cells were performed. Plasmids encoding human wild-type DJ-1, PD-associated L166P mutant DJ-1, or vector alone, were transiently transfected into DJ-1 deficient clones, and these were subsequently assayed for sensitivity to H2O2 using the MTT viability assay.
In Vivo Assays. ES cells plated in 96-well format (2.3×10^4 cells/well) were treated for 15 hours with H2O2 in ES media deficient in β-mercaptoethanol (Abeliovich et al. 2000). Cell viability (as a percent of untreated control) was determined by MTT assay in triplicate (Fezoui et al. 2000). Annexin V/Propidium Iodide (Molecular probes) staining was performed per the manufacturer's instructions. For dihydrorhodamine-123 staining (DHR, Molecular probes) (Walrand et al. 2003), cells were preincubated for 30 min with DHR (5 μM), washed with PBS, then treated with H2O2 in ES media deficient in β-mercaptoethanol for 15 min at 37° C. The FACS analysis was performed using a FACSTAR sorter (Becton Dickinson). Dopamine uptake assay was performed essentially as described (Farrer et al. 1998). Reported values represent specific uptake from which non-specific uptake, determined in the presence of mazindol, was subtracted, and normalized for protein content (BCA kit, Pierce).

citrate synthase (CS) = molecular target: T1, citrate synthase (CS); experiment: Suppression of heat-induced aggregation of citrate synthase (chaperone assay); format: biochemical; conditions: 0.8 μM CS, 43° C.
Experimental: To test the redox regulation of DJ-1, the inventors assayed chaperone activity in the CS aggregation assay in the presence or absence of the reducing agent DTT. […] (FIG. 22D). […] To further test whether redox regulation might govern DJ-1 chaperone activity, reactivation studies using reduced DJ-1 were performed. DTT-reduced DJ-1 was incubated with H2O2 (10 mM in aggregation buffer for 10 min at 4° C. followed by dialysis against aggregation buffer for 2 h), and subsequently chaperone activity was measured in the CS thermal aggregation assay. […] This was not an indirect effect of residual H2O2 on CS aggregation, as H2O2 treatment of CS increased aggregation (unpublished data).
CS aggregation was performed in 40 mM HEPES (pH 7.8), 20 mM potassium hydroxinde, 50 mM potassium chloride, and 10 mM ammonium sulfate, and monitored in a thermostat-controlled fluorescence spectrophotometer with excitation and emission wavelengths at 500 nm and slit widths at 2.5 nm. Insulin aggregation was performed as described (Giasson et al. 2000). CS, insulin, RNase A, and GST were obtained from Sigma; human Hsp27 was obtained from Stressgen.

[2] = test system: CAD murine neuroblastoma cells; experiment: Q333P NFL intracytoplasmic inclusions in CAD cells; format: cell-based; conditions: co-overexpression with Q333P mutant NFL
Experimental: In a separate set of experiments, the inventors assayed the ability of DJ-1 to inhibit aggregation of a second substrate, neurofilament light subunit (NFL). Overexpression of a mutant form of human NFL, Q333P, by transient transfection of CAD murine neuroblastoma cells, leads to the accumulation of intracytoplasmic inclusions (Perez-Olle et al. 2002).
as §1

[3] = test system: Undifferentiated ES cells; experiment: Q333P mutant NFL toxicity, MTT reduction, undifferentiated ES cells; format: cell-based; conditions: 72 h
Experimental: FIG. 30 depicts the additional studies of DJ-1 mutations. […] Cells from FIG. 4M were quantified via ToPro3 nuclear staining and are expressed as number of cells per field from ten independent fields in each of three wells. Data are shown as the mean±SEM and were analyzed by ANOVA with Fisher's post-hoc test. *p<0. […] GFP positive transfected cells from FIG. 5A-5L were quantified and are expressed as number of transfected cells per field from ten independent fields in each of three wells. Data are shown as the mean±SEM and were analyzed by ANOVA with Fisher's post-hoc test. *p<0. (C) Overexpression of WT DJ-1, but not L166P mutant DJ-1, rescues cells from Q333P mutant NFL toxicity. HeLa cells were transfected with Q333P mutant NFL along with WT human DJ-1, L166P mutant DJ-1, or vector control. After 72 h, cells were assayed by MTT reduction assay (which detects reduction of 3-(4,5-dimethylthiazol-2-yl)-2,5-diphenyltetrazolium bromide by metabolic enzymes) (Martinat et al. 2004). Data are shown as the mean±SEM and were analyzed by ANOVA with Fisher's post-hoc test. *p<0. […] Undifferentiated ES cells were transfected with Q333P mutant NFL along with WT human DJ-1, C53A mutant DJ-1, or vector control. After 72 h, cells were assayed by MTT reduction assay (Martinat et al. 2004). Data are shown as the mean±SEM and were analyzed by ANOVA with Fisher's post-hoc test. *p<0. […]

| Molecule | generation of late dopamine neurons (eYFP fluorescence, DAT immunoreactivity, late DN markers) (DY-1 ES cells) | number of cells containing αSyn aggregates [1] | thermal unfolding transition (CD thermal denaturation) | viability of DJ-1 knockout cells in the presence of H2O2 (DJ-1-deficient ES cells) | suppression of heat-induced aggregation of CS (chaperone activity) (citrate synthase (CS)) | accumulation of NFL inclusions [2] | rescue from Q333P mutant NFL toxicity [3] |
| --- | --- | --- | --- | --- | --- | --- | --- |
| B1 | did not detect any effect |  |  |  |  |  |  |
| B2 |  | fails to do so | does not exhibit a thermal unfolding transition | did not significantly alter the viability | abrogated chaperone activity | failed to inhibit |  |
| B3 |  |  |  | failed to protect | completely abrogates chaperone activity |  | unable to rescue |
